We go through 30 sequences from the nanobody polyreactivity screen of Harvey et al. (2022).

The series in a line: yeast display, Sf9 membrane polyspecificity reagent, FACS + sequencing; frameworks hold sequencing errors. A digest of the protocol:
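Nanobodies came from a synthetic yeast display library in Saccharomyces cerevisiae BJ5465, induced with galactose for 36–48 hours and stained for 1 hour at 4 °C with 10% biotinylated, detergent-solubilized Sf9 membrane reagent. Cells were enriched on streptavidin microbeads and then FACS-sorted, with low and high (top ~1%) gates set on anti-HA fluorescence for expression and streptavidin fluorescence for reagent binding. Each polyreactivity label reflects the gate a clone came from. Genes were amplified by colony PCR, sequenced by MiSeq 2 × 250 and filtered by CDR length.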
“QVQLVESGGGLVQAGGSLRLSCAASGIILPKYSMGWYRQAPGKERELVAAITRSGGSTYYADSVKGRFTISRDNAKNTVYLQMNSLKPEDTAVYYCAARAANPTRTARYNYWGHGTQVTVSS”: the “polyreactivity (PSR sort gate)” value is “high polyreactivity”.

Consider “QVQLVESGGGLVQAGGSLRLSCAASGIILPVYAMGWYRPAPGKERELVAAIRWSSGRTYYADSVKGRFTISRDNAKNTVYLQMNSLKPEDTAVYYCAAYPSSEYDYWGQGTQVTVSS”, for which the “polyreactivity (PSR sort gate)” value is listed as “low polyreactivity”.

“QVQLVESGGGLVQAGGSLRLSCAASGIILPVYAMGWYRQAPGKERELVAAIRWCSGRTYYADSVKGRFTISRDNAKNTVFLQMNSLKPEDTAVYYCAKDGGQRKYDYWGQGTQVTVSS”: the “polyreactivity (PSR sort gate)” value is “low polyreactivity”.

Take “QVQLVESGGGLVQAGGSLRLSCAASGIILPVYAMGWYRQAPGKERELVAAIRWSSGRTYYADSVKGRFTISRDNAKNTVYLQMNSLKPEDTAVYYCNAALYHDSEYNYWGQGTQVTVSS”: the “polyreactivity (PSR sort gate)” value is given as “high polyreactivity”.

For “QVQLVESGGGLVQAGGSLRLSCAASGIILRYYAMGWYRQAPGKERELVASITSSGGRTYYADSVKGRFRISRDNAKNTVYLQMNSLKPEDTAVDYCAAKWAVVSGYGYWGQGTQVTVSS”, the “polyreactivity (PSR sort gate)” value is given as “high polyreactivity”.

Take “QVQLVESGGGLVQAGGSLRLSCAASGIILSPYTMGWYRQAPGKERELVAGISRSGGTTYYADSVKGRFTISRDNAKNTVYLQMNSLKPEDTAVYYCAARKPGWGHEWWVEHYYYWGQGTQVTVSS”: the “polyreactivity (PSR sort gate)” value is reported as “low polyreactivity”.

As for “QVQLVESGGGLVQAGGSLRLSCAASGIILTQNAMGWYRQAPGKERELVAAITESGARTYYADSVKGRFTISRDNAKNTVYLQMNSLKPEDTAVYYCNAYRYYRGQVYPFYYWGQGTQVTVSS”, the “polyreactivity (PSR sort gate)” value is “low polyreactivity”.

Turning to “QVQLVESGGGLVQAGGSLRLSCAASGIILYWNAMGWYRQAPGKERELVARITSGGSTNYADSVKGRFTISRDNAKNTVYLQMNSLKPEDTAVYYCAADYKAYGRSYDYWGQGTQVTVSS”, the “polyreactivity (PSR sort gate)” value is on record as “low polyreactivity”.

For “QVQLVESGGGLVQAGGSLRLSCAASGIILYYYVMVWYRQEPGKEREFVAAINRSGTSTYYADSVKGRFTISRDNAKNTVYLQMNSLKPADTAVYYCAAERYWSGGVFDYDYWGQGTQVTVSS”, the “polyreactivity (PSR sort gate)” value is on record as “high polyreactivity”.

Take “QVQLVESGGGLVQAGGSLRLSCAASGIIMRKYAMGWYRQAPGKERELVAAITTRGSRTYYADSVKGRFTISRDNAKNTVYLQMNSLKPEDTAVYYCAADRYTVRMDYWGQGTQVTVSS”: the “polyreactivity (PSR sort gate)” value is given as “high polyreactivity”.

With “QVQLVESGGGLVQAGGSLRLSCAASGIISIFNVMGWYRQAPGKEMEWVASITGRGGSTFYADSVKGRFTISRDNAKNTVDLLMNSMKPEATAVYFCATDNGYTYPVTGLYDYWGQGTQVTVSS”, the “polyreactivity (PSR sort gate)” value was “low polyreactivity”.

“QVQLVESGGGLVQAGGSLRLSCAASGIISSTNAMGWYRQEPGKERELVAAISGRGSGTYYADSVKGRFTISRDNAKNTVYLQMNRLKPEDTAVYYCAALSNVFQWWFKTNKSRYDYWGQGTQVTVSS”: the “polyreactivity (PSR sort gate)” value is on record as “high polyreactivity”.

Consider “QVQLVESGGGLVQAGGSLRLSCAASGIISSVYAMGWYRQAPGKERELVAAITGSGGNTYYADSVKGRFTISRDNAKNTVSLQMNSLKPEDTAVYYCATDDAIISYELVYQYDHWGQGTQVTVSS”, for which the “polyreactivity (PSR sort gate)” value was “low polyreactivity”.

As for “QVQLVESGGGLVQAGGSLRLSCAASGIISYQKAMGWYRQAPGKERELVAGITYSGGSTYYADSVKGRFTISRDNAKNSVYLQMNSLKPEDTAVYYCAARVVYWTWAGLSKMDYWGQGTQVTVSS”, the “polyreactivity (PSR sort gate)” value is “high polyreactivity”.

With “QVQLVESGGGLVQAGGSLRLSCAASGIIYGIYAMGWYRQAPGKERELVAAITSRGGTTYYADSVKGRFTISRDNAKNTVYLQMNSLKPEDTAVYYCAARGRRYSHRVGYDWGQGTQVTVSS”, the “polyreactivity (PSR sort gate)” value is reported as “high polyreactivity”.

On to “QVQLVESGGGLVQAGGSLRLSCAASGIIYKSYAMGWYRQAPGKERELVAVIRWSGGSTYYSDSVKGRFTISRDNAKNTVYLQMNSLKPEDTAVYYCAATPRKSYSIRRYDYWGQGTQVTVSS”, for which the “polyreactivity (PSR sort gate)” value is on record as “high polyreactivity”.

On to “QVQLVESGGGLVQAGGSLRLSCAASGIIYKYAMGWYRQAPGKERELVATITWSDGSTYYADSVKGRFTISRDNAKNTVYLQMNSLKPDDTAVYYCAADDYYGYDYWGQGTQVTVSS”, for which the “polyreactivity (PSR sort gate)” value is “low polyreactivity”.

Consider “QVQLVESGGGLVQAGGSLRLSCAASGIIYYENTMGWYRQAPGKERELVAPINSGGSTYYADCVKGRFTISRDNAKNTVYLQMNSLKPEDTAVYYCAADDYSGLYYSSTYRYEYWGQGTQVTVSS”, for which the “polyreactivity (PSR sort gate)” value was “low polyreactivity”.

On to “QVQLVESGGGLVQAGGSLRLSCAASGINFDDYVMGWYRQAPGKERELFAAISSSGGSTYYADSVKGRFTISRDNAKNTVYLQMNSLKPEDTAVYYCAADYGSYGVVRAVSIEYEYWGQGTKVTVSS”, for which the “polyreactivity (PSR sort gate)” value is listed as “low polyreactivity”.

As to “QVQLVESGGGLVQAGGSLRLSCAASGINFPRYMGWYRQAPGKERELVAAIRWSSDDTNYADSVKGRFTISRDNAKNTVYLQMNSLKPEDTAVYYCAADSYYDRTIQFEFSASTYDYWGQGTQVTVSS”, the “polyreactivity (PSR sort gate)” value was “low polyreactivity”.

For “QVQLVESGGGLVQAGGSLRLSCAASGINFRLNAMGWYRQAPGKERELVAAIRRRGGSTYYADSVKGRFTISRDNAKNTVYLQMNSLIPEDTAVYYCAKDPHGSDFGYWGQGNQVTVSS”, the “polyreactivity (PSR sort gate)” value is on record as “low polyreactivity”.

Regarding “QVQLVESGGGLVQAGGSLRLSCAASGINFRTYAMGWYRQAPGKERELVAAINSDGSTYYADSVKGRFTISRDNAKITVYLQMNSLKPEDNAVYYCAAVVWRIHAYYWAVDGWYYYWGQGTQVTVSS”, the “polyreactivity (PSR sort gate)” value is listed as “high polyreactivity”.

With “QVQLVESGGGLVQAGGSLRLSCAASGINFSFYTMRWYRQAPGIERELVAAISSGGDTYYADSVNGRFTNSRDNAKNTVYLQMNSLKPEVTAVYYCAVDQYDRTTAFCYWYPYYYWGQGTQVTVSS”, the “polyreactivity (PSR sort gate)” value is “low polyreactivity”.

Consider “QVQLVESGGGLVQAGGSLRLSCAASGINFVLYAMGWYRQAPGKERELVAAITSGGRTYYADSVNGRFTISRDNAKNTVYLQMISLKPEDTAVYYCADNYFTQRLWFDYWGQGTQVSVSS”, for which the “polyreactivity (PSR sort gate)” value is reported as “high polyreactivity”.

For the sequence “QVQLVESGGGLVQAGGSLRLSCAASGINFWYYAMVGYRQATGKERELDAAITGGSTYYADSVKGRFTISRDNAKNTVYLQMISLKQEDTAVYYCNADSVFEYWDYDYWGQGTQVTVSS”, the “polyreactivity (PSR sort gate)” value is listed as “low polyreactivity”.

As to “QVQLVESGGGLVQAGGSLRLSCAASGINFYYYTMGWYRQAPGKERELVAGITRGGRTYYADSVKGRFTISRDNAKNTVYLQMNSLKPEDTAVYYCNADPWWRFDYWGQGTQVTVSS”, the “polyreactivity (PSR sort gate)” value is “low polyreactivity”.

As for “QVQLVESGGGLVQAGGSLRLSCAASGISFRRYTMGSYRQAPGKERELVDTISLSDGNTYYADSVKGRFTISRDNAKNTVYLQMNSMKPEDTAVYYCNARHTWHQSYDYWGQGTQVSVSS”, the “polyreactivity (PSR sort gate)” value is recorded as “low polyreactivity”.

On to “QVQLVESGGGLVQAGGSLRLSCAASGISFSYYAMGLCRQAPGKERELVAAISISGGRTYYADSVKGRFTISRDNAKNTVYLQMNSLKPEDTAVYYCASCVGSRIKQVGNDYWGQVTQVTVSS”, for which the “polyreactivity (PSR sort gate)” value is recorded as “high polyreactivity”.

With “QVQLVESGGGLVQAGGSLRLSCAASGITFADNAMGWYRPAPGKERELVAAITSGGSTYYADSVKGRFTISRDNAKNTVYLQMNSLKPEDTAVYYCNVRVRRLFYWARLVAYDYWGQGTQVTVSS”, the “polyreactivity (PSR sort gate)” value is given as “high polyreactivity”.

On to “QVQLVESGGGLVQAGGSLRLSCAASGITFADNAMGWYRQAPGKERELVAANSWSGDRTFYADSVKGRFTISRDNAKNTVYLQMNSLKPEDTAVYYCARDSLQVFYPYASDDYWGQGTQVTVSS”, for which the “polyreactivity (PSR sort gate)” value is “low polyreactivity”.
